This note sets out measurements from patent US20220064324A1 (US Dept. of Health and Human Services, published 2022).

Where a chain is given by its changes, count along the chain named.

Experiment [1] has as its target T1, human mesothelin Fragment 1 (residues 296-390) (human, UniProt Q13421 296-390).
T1 construct: also called Region I
T1 chain: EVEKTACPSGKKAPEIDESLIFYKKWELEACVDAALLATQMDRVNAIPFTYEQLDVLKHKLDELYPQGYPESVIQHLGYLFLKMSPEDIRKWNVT
In words: ELISA on mesothelin Region I, VHH concentration not given. A general note: In an ELISA, binding on a coated surface is turned into a signal by an enzyme label.

For experiment [2], the target named is T2, human mesothelin Region IAB (296-359) (human, UniProt Q13421 296-359).
T2 construct: also called IAB domain
T2 chain: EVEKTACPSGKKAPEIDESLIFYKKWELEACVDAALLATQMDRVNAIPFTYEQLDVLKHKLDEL
In words: ELISA on mesothelin Region IAB, VHH concentration not given.

In experiment [3] the target is T3, human mesothelin Region IAB Y318A mutant (human, UniProt Q13421 296-359).
T3 chain: T2 chain with Y23A
Description: ELISA on Region IAB mutant Y318A, VHH concentration not given.

B1: G8 camel single-domain (VHH) monoclonal antibody (VHH)
VHH: QVKLEESGGGSVQAGGSLRLSCTTSGYTNSYKWMGWFRQAPGQEREGVAVIYTGNDRTYYSDSVKGRFTISRDNAKNMIYLDMTRLRPEDSAVYECAIGHDGAWRYWGQGTQVTVSS
notes: Isolated from a camel VHH phage display library; also called G8 antibody; G8 anti-mesothelin VHH antibody
As to B1, the binding result is “binds” in experiment [1], “binds” in experiment [2] and “no binding” in experiment [3].

B2: A101 camel single-domain (VHH) monoclonal antibody (VHH)
VHH: QVQLVESGGGTVQAGGSLKLACAASGLPRTYNVMGWFRQAPGKEREGVAIIYTTTGATYYRDSVKGRATISQDNAKKSVSLQMNSLRPEDTAIYYCVARQPNSGPWEYWGQGTQVTVSS
notes: Isolated from a camel VHH phage display library; also called A101 antibody; A101 anti-mesothelin VHH antibody
Turning to B2, the binding result was “binds” in experiment [1], “binds” in experiment [2] and “no binding” in experiment [3].
